Test results from patent US20110104167A1, “Compositions and Methods for Diagnosing and Treating Insulin Resistance” (YEDA RESEARCH AND DEVELOPMENT CO. LTD., priority 2004, published 2011).

Tested on: CHO-T cells
Assay: Phosphorylation (mobility shift) of truncated IRS-1 PH/PTB constructs in CHO-T cells
Assay type: cell-based, Chinese Hamster
Conditions: for effect of inhibitor pretreatment on the mobility shift of PH/PTB-L induced by chronic insulin: 30 min inhibitor, then 100 nM insulin 30 min
Description: FIGS. 7a-c show In vivo phosphorylation of PH/PTB-L in response to insulin. CHO-T cells were transiently transfected with pcDNA3-Myc-PH/PTB (1-1290 nt) or with an insert-free plasmid (control). Twenty-four hours post-transfection, the cells were deprived of serum for 16 h and were then treated with insulin for the indicated time periods. Cell extracts (100 μg) were resolved on 10% SDS-PAGE and immunoblotted with anti-pY or anti-Myc antibodies (FIG. 7a). In parallel, samples (100 μg, 40 μl) were incubated with 3 units (U) of calf intestine phosphatase (CIP) at 37° C. for 1 h. The samples were resolved on 10% SDS-PAGE and immunoblotted with anti-Myc antibodies (FIG. 7b). The results are of a representative of two experiments. FIG. 7c—CHO^PH/PTB-L cells were starved in serum-free F12 medium for 16 h. The cells were treated for 30 min with the indicated inhibitors prior to being treated with 100 nM insulin for 30 min. Cell extracts were prepared, samples were resolved on 10% SDS-PAGE and were immunoblotted with anti-Myc antibodies. Results are of a representative of three experiments.
FIGS. 8a-b show the effects of insulin on Serine phosphorylation of Myc-PH/PTB-L^7A CHO-T cells were transiently transfected with constructs encoding Myc-PH/PTB-L (1-1290 nt), either wild type (WT) or the 7A mutant (FIG. 8a). Alternatively, the cells were transfected or with the constructs encoding Myc-PH/PTB-L (1-1290 nt; 1-430 aa) or Myc-PH/PTB-S (1-1095 nt; 1-365 aa, FIG. 8b). Following 24 hours in culture, the cells were incubated in serum-free F12 medium for 16 ch prior to being treated with insulin for the indicated times. Cell extracts were resolved on 10% SDS-PAGE and immunoblotted with anti-Myc antibodies. Results are of a representative of three experiments.
FIGS. 9a-b show the effects of insulin and calyculin A on Ser phosphorylation of PH/PTB-L mutants. FIG. 9a—CHO-T cells were transiently transfected with constructs expressing either Myc-PH/PTB^WT or the following PH/PTB mutants: S336A, S407A, S408A, S407/8A and S3A (S336/407/408A). Following 24 hours the cells were deprived of serum for 16 h, and were treated with insulin for the indicated times. Cell extracts were resolved on 10% SDS-PAGE and immunoblotted with anti-Myc antibodies. The results are of a representative of two-three experiments. FIG. 9b—CHO-T cells were transiently transfected with pcDNA3-myc-PH/PTB^WT or pcDNA3-myc-PH/PTB^S408A. Following 24 hours the cells were starved for 16 h and were then treated either with 100 nM insulin for 30 min or with 25 nM calyculin A for 60 min. Cell extracts were resolved on 10% SDS-PAGE and were immunoblotted with anti-Myc antibodies. Results are of a representative of two experiments.
Plasmids construction—i. Myc-tagged-IRS-1 The cDNA, encoding for the mouse IRS-1 in the pCNA-3 expression plasmid (35) was digested with Hind III and BspE-1. This deleted a 9 by fragment from the 5′-IRS-1 cDNA that was replaced by a double stranded synthetic oligonucleotide encoding the Myc tag and the missing amino-acids of IRS-1 (bold) […] (SEQ ID NO. 9). ii. Myc-tagged truncated IRS-1 (aa 1-430, PH/PTB-L) Myc-tagged mouse IRS-1 cDNA (N-terminus, 1-1290 nt), encoding for the first 430 aa of IRS-1, was PCR-amplified with the following primers. 5′-CAGGATCCGCATATGGAACAAAAGCTC-3′ (sense) (SEQ ID NO. 10); 5′-GAGAATTCATCAGGGACTAGAACCATA-3′ (anti-sense) (SEQ ID NO. 11), using as a template the pcDNA3-Myc-IRS-1 plasmid. The PCR product was ligated into a pGEM-T. The insert was excised from pGEM-T with BamH I and EcoR I (italic), and then was ligated into pcDNA3 at the same restriction sites to generate pcDNA3-Myc-IRS-1^PH/PTB-L. iii. Myc-tagged truncated IRS-1 (aa 1-365, PH/PTB-S) Myc-tagged mouse IRS-1 cDNA (N-terminus, 1-1095 nt), encoding for the first 365 aa of IRS-1, was PCR-amplified with the following primers: 5′ […]-3′ (sense) (SEQ ID NO. 12); 5′ […] 3′ (anti sense) (SEQ ID NO. 13) using as a template the pcDNA3-Myc-IRS-1. […]

Molecule	mobility shift following 30 min insulin treatment (CHO-T cells)	further results
COc1cccc(-c2cc(=O)c3ccccc3o2)c1N [PD98059]		effect of inhibitor pretreatment on the mobility shift of PH/PTB-L induced by chronic insulin: ineffective
C[S+]([O-])c1ccc(-c2nc(-c3ccncc3)c(-c3ccc(F)cc3)[nH]2)cc1 (stereo not shown) [SB203580]		effect of inhibitor pretreatment on the mobility shift of PH/PTB-L induced by chronic insulin: ineffective
PH/PTB-S: Myc-tagged truncated mouse IRS-1 (aa 1-365), lacks S407 and S408 (protein, UniProt P35569 1-365, looked up, fragment, Myc tag, Myc-tagged truncated mouse IRS-1 (aa 1-365), lacks S407 and S408) MASPPDTDGFSDVRKVGYLRKPKSMHKRFFVLRAASEAGGPARLEYYENEKKWRHKSSAPKRSIPLESCFNINKRADSKNKHLVALYTRDEHFAIAADSEAEQDSWYQALLQLHNRAKAHHDGAGGGCGGSCSGSSGVGEAGEDLSYDTGPGPAFKEVWQVILKPKGLGQTKNLIGIYRLCLTSKTISFVKLNSEAAAVVLQLMNIRRCGHSENFFFIEVGRSAVTGPGEFWMQVDDSVVAQNMHETILEAMRAMSDEFRPRSKSQSSSSCSNPISVPLRRHHLNNPPPSQVGLTRRSRTESITATSPASMVGGKPGSFRVRASSDGEGTMSRPASVDGSPVSPSTNRTHAHRHRGSSRLHPPLN		mobility shift (Ser phosphorylation) following prolonged insulin treatment (CHO-T cells, prolonged insulin): no decrease in its mobility
PH/PTB-L^S336A: PH/PTB-L with Ser336 mutated to Ala (protein, UniProt P35569 1-430, looked up, variant S336A, Myc tag, PH/PTB-L with Ser336 mutated to Ala) MASPPDTDGFSDVRKVGYLRKPKSMHKRFFVLRAASEAGGPARLEYYENEKKWRHKSSAPKRSIPLESCFNINKRADSKNKHLVALYTRDEHFAIAADSEAEQDSWYQALLQLHNRAKAHHDGAGGGCGGSCSGSSGVGEAGEDLSYDTGPGPAFKEVWQVILKPKGLGQTKNLIGIYRLCLTSKTISFVKLNSEAAAVVLQLMNIRRCGHSENFFFIEVGRSAVTGPGEFWMQVDDSVVAQNMHETILEAMRAMSDEFRPRSKSQSSSSCSNPISVPLRRHHLNNPPPSQVGLTRRSRTESITATSPASMVGGKPGSFRVRASSDGEGTMSRPAAVDGSPVSPSTNRTHAHRHRGSSRLHPPLNHSRSIPMPSSRCSPSATSPVSLSSSSTSGHGSTSDCLFPRRSSASVSGSPSDGGFISSDEYGSSP	identical mobility-shifts as PH/PTB-L^WT	
PH/PTB-L^S407A: PH/PTB-L with Ser407 mutated to Ala (protein, UniProt P35569 1-430, looked up, variant S407A, Myc tag, PH/PTB-L with Ser407 mutated to Ala) MASPPDTDGFSDVRKVGYLRKPKSMHKRFFVLRAASEAGGPARLEYYENEKKWRHKSSAPKRSIPLESCFNINKRADSKNKHLVALYTRDEHFAIAADSEAEQDSWYQALLQLHNRAKAHHDGAGGGCGGSCSGSSGVGEAGEDLSYDTGPGPAFKEVWQVILKPKGLGQTKNLIGIYRLCLTSKTISFVKLNSEAAAVVLQLMNIRRCGHSENFFFIEVGRSAVTGPGEFWMQVDDSVVAQNMHETILEAMRAMSDEFRPRSKSQSSSSCSNPISVPLRRHHLNNPPPSQVGLTRRSRTESITATSPASMVGGKPGSFRVRASSDGEGTMSRPASVDGSPVSPSTNRTHAHRHRGSSRLHPPLNHSRSIPMPSSRCSPSATSPVSLSSSSTSGHGSTSDCLFPRRASASVSGSPSDGGFISSDEYGSSP	identical mobility-shifts as PH/PTB-L^WT	
PH/PTB-L^407/S408A: PH/PTB-L with Ser407 and Ser408 mutated to Ala (protein, UniProt P35569 1-430, looked up, variant S407A S408A, Myc tag, PH/PTB-L with Ser407 and Ser408 mutated to Ala) MASPPDTDGFSDVRKVGYLRKPKSMHKRFFVLRAASEAGGPARLEYYENEKKWRHKSSAPKRSIPLESCFNINKRADSKNKHLVALYTRDEHFAIAADSEAEQDSWYQALLQLHNRAKAHHDGAGGGCGGSCSGSSGVGEAGEDLSYDTGPGPAFKEVWQVILKPKGLGQTKNLIGIYRLCLTSKTISFVKLNSEAAAVVLQLMNIRRCGHSENFFFIEVGRSAVTGPGEFWMQVDDSVVAQNMHETILEAMRAMSDEFRPRSKSQSSSSCSNPISVPLRRHHLNNPPPSQVGLTRRSRTESITATSPASMVGGKPGSFRVRASSDGEGTMSRPASVDGSPVSPSTNRTHAHRHRGSSRLHPPLNHSRSIPMPSSRCSPSATSPVSLSSSSTSGHGSTSDCLFPRRAAASVSGSPSDGGFISSDEYGSSP	abolished the mobility shift	
PH/PTB-L^S408A: PH/PTB-L with Ser408 mutated to Ala (protein, UniProt P35569 1-430, looked up, variant S408A, Myc tag, PH/PTB-L with Ser408 mutated to Ala) MASPPDTDGFSDVRKVGYLRKPKSMHKRFFVLRAASEAGGPARLEYYENEKKWRHKSSAPKRSIPLESCFNINKRADSKNKHLVALYTRDEHFAIAADSEAEQDSWYQALLQLHNRAKAHHDGAGGGCGGSCSGSSGVGEAGEDLSYDTGPGPAFKEVWQVILKPKGLGQTKNLIGIYRLCLTSKTISFVKLNSEAAAVVLQLMNIRRCGHSENFFFIEVGRSAVTGPGEFWMQVDDSVVAQNMHETILEAMRAMSDEFRPRSKSQSSSSCSNPISVPLRRHHLNNPPPSQVGLTRRSRTESITATSPASMVGGKPGSFRVRASSDGEGTMSRPASVDGSPVSPSTNRTHAHRHRGSSRLHPPLNHSRSIPMPSSRCSPSATSPVSLSSSSTSGHGSTSDCLFPRRSAASVSGSPSDGGFISSDEYGSSP	abolished the mobility shift	
